Experimental data as given in US20250188166A1.

What was measured:
[1] = biological target: native IL-18 wild-type (SEQ ID NO: 1) (human) (UniProt Q14116); assay: cell-based or functional assay
[2] = biological target: IL-18 polypeptide SEQ ID NO: 30 (E6K, V11I, C38A, K53A, T63A, C76A, C127A) (human) (UniProt Q14116); assay: cell-based or functional assay

IC50 of IL-18BPa on IFNγ secretion, PD-1^negative Parental NK-92 [1]: 2.97 nM | IC50 of IL-18BPa on IFNγ secretion, PD-1^positive NK-92 [1]: 2.67 nM | IC50 of IL-18BPa on IFNγ secretion, PD-1^negative Parental NK-92 [2]: 110 nM | IC50 of IL-18BPa on IFNγ secretion, PD-1^positive NK-92 [2]: 80.3 nM
Substance: His-tag human IL-18 binding protein isoform a (from UniProt O95998 31-194)
